Reference: patent US20220204580A1 (AstraZeneca / MedImmune, published 2022)
Numbered stars: 1 amine (or outer) side, 2 acyl side, 3 side chain; on linkers, the order of the positions; unused ones are H or OH. Bridge positions count the residues as written; N and C are the ends. Square brackets hold non-standard residues; d marks the D form. Side chains are listed from the residue outwards. Ends that are not written are not given here. * marks the point of attachment. C20 diacid = O=C(O)CCCCCCCCCCCCCCCCCCC(=O)*; C18 diacid = O=C(O)CCCCCCCCCCCCCCCCC(=O)*; γGlu = O=C(O)[C@H](CCC(=O)[*:2])N[*:1]; αMeF = C[C@](N)(Cc1ccccc1)C(=O)O; Dab = NCC[C@H](N)C(=O)O; Aib = CC(C)(N)C(=O)O

T1: human amylin receptor (calcitonin receptor co-expressed with receptor activity modifying protein, RAMP3) (human, UniProt P30988 25-474; O60896 24-148)
T1 sequence (looked up) 1: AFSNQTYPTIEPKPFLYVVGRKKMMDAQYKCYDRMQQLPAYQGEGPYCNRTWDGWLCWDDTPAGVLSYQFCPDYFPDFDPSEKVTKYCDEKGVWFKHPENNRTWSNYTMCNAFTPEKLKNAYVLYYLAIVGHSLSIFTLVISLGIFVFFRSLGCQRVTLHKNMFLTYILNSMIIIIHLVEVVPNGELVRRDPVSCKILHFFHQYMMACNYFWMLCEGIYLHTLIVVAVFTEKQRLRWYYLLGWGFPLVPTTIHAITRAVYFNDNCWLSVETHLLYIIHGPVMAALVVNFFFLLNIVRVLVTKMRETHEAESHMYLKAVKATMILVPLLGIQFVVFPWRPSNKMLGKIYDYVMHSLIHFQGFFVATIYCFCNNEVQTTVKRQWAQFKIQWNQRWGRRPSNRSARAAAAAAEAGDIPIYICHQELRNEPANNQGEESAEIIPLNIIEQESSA
T1 sequence (looked up) 2: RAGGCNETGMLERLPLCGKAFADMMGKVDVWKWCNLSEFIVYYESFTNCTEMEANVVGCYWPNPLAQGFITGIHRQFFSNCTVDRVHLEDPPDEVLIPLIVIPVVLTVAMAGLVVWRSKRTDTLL

T2: human calcitonin receptor (human, UniProt P30988 25-474)
T2 sequence (looked up): T1 sequence (looked up) 1

B1: Peptide 126 (SEQ ID NO: 126) (peptide)
peptide: K([γGlu-C18 diacid])KCNTATCATQRLANFL[Aib]HSS[Dab]NFGPILPPTNVGSNTY-NH2
modifications: disulfide 3-8; N-terminus assumed
SMILES: CC[C@H](C)[C@H](NC(=O)[C@@H]1CCCN1C(=O)CNC(=O)[C@H](Cc1ccccc1)NC(=O)[C@H](CC(N)=O)NC(=O)[C@H](CCN)NC(=O)[C@H](CO)NC(=O)[C@H](CO)NC(=O)[C@H](Cc1c[nH]cn1)NC(=O)C(C)(C)NC(=O)[C@H](CC(C)C)NC(=O)[C@H](Cc1ccccc1)NC(=O)[C@H](CC(N)=O)NC(=O)[C@H](C)NC(=O)[C@H](CC(C)C)NC(=O)[C@H](CCCNC(=N)N)NC(=O)[C@H](CCC(N)=O)NC(=O)[C@@H](NC(=O)[C@H](C)NC(=O)[C@@H]1CSSC[C@H](NC(=O)[C@H](CCCCN)NC(=O)[C@@H](N)CCCCNC(=O)CC[C@H](NC(=O)CCCCCCCCCCCCCCCCC(=O)O)C(=O)O)C(=O)N[C@@H](CC(N)=O)C(=O)N[C@@H]([C@@H](C)O)C(=O)N[C@@H](C)C(=O)N[C@@H]([C@@H](C)O)C(=O)N1)[C@@H](C)O)C(=O)N[C@@H](CC(C)C)C(=O)N1CCC[C@H]1C(=O)N1CCC[C@H]1C(=O)N[C@H](C(=O)N[C@@H](CC(N)=O)C(=O)N[C@H](C(=O)NCC(=O)N[C@@H](CO)C(=O)N[C@@H](CC(N)=O)C(=O)N[C@H](C(=O)N[C@@H](Cc1ccc(O)cc1)C(N)=O)[C@@H](C)O)C(C)C)[C@@H](C)O
B2: Peptide 123 (SEQ ID NO: 123) (peptide)
peptide: K([γGlu-γGlu-C20 diacid])CNTATCATQRLANFLVHSS[Aib]NFPAILSPT[Dab]VGSNTY-NH2
modifications: disulfide 2-7; N-terminus assumed
SMILES: CC[C@H](C)[C@H](NC(=O)[C@H](C)NC(=O)[C@@H]1CCCN1C(=O)[C@H](Cc1ccccc1)NC(=O)[C@H](CC(N)=O)NC(=O)C(C)(C)NC(=O)[C@H](CO)NC(=O)[C@H](CO)NC(=O)[C@H](Cc1c[nH]cn1)NC(=O)[C@@H](NC(=O)[C@H](CC(C)C)NC(=O)[C@H](Cc1ccccc1)NC(=O)[C@H](CC(N)=O)NC(=O)[C@H](C)NC(=O)[C@H](CC(C)C)NC(=O)[C@H](CCCNC(=N)N)NC(=O)[C@H](CCC(N)=O)NC(=O)[C@@H](NC(=O)[C@H](C)NC(=O)[C@@H]1CSSC[C@H](NC(=O)[C@@H](N)CCCCNC(=O)CC[C@H](NC(=O)CC[C@H](NC(=O)CCCCCCCCCCCCCCCCCCC(=O)O)C(=O)O)C(=O)O)C(=O)N[C@@H](CC(N)=O)C(=O)N[C@@H]([C@@H](C)O)C(=O)N[C@@H](C)C(=O)N[C@@H]([C@@H](C)O)C(=O)N1)[C@@H](C)O)C(C)C)C(=O)N[C@@H](CC(C)C)C(=O)N[C@@H](CO)C(=O)N1CCC[C@H]1C(=O)N[C@H](C(=O)N[C@@H](CCN)C(=O)N[C@H](C(=O)NCC(=O)N[C@@H](CO)C(=O)N[C@@H](CC(N)=O)C(=O)N[C@H](C(=O)N[C@@H](Cc1ccc(O)cc1)C(N)=O)[C@@H](C)O)C(C)C)[C@@H](C)O
B3: Peptide 124 (SEQ ID NO: 124) (peptide)
peptide: K([γGlu-γGlu-C18 diacid])CNTATCATQRLANFLVHSS[Aib]NFPAILSPTNVGS[Dab]TY-NH2
modifications: disulfide 2-7; N-terminus assumed
SMILES: CC[C@H](C)[C@H](NC(=O)[C@H](C)NC(=O)[C@@H]1CCCN1C(=O)[C@H](Cc1ccccc1)NC(=O)[C@H](CC(N)=O)NC(=O)C(C)(C)NC(=O)[C@H](CO)NC(=O)[C@H](CO)NC(=O)[C@H](Cc1c[nH]cn1)NC(=O)[C@@H](NC(=O)[C@H](CC(C)C)NC(=O)[C@H](Cc1ccccc1)NC(=O)[C@H](CC(N)=O)NC(=O)[C@H](C)NC(=O)[C@H](CC(C)C)NC(=O)[C@H](CCCNC(=N)N)NC(=O)[C@H](CCC(N)=O)NC(=O)[C@@H](NC(=O)[C@H](C)NC(=O)[C@@H]1CSSC[C@H](NC(=O)[C@@H](N)CCCCNC(=O)CC[C@H](NC(=O)CC[C@H](NC(=O)CCCCCCCCCCCCCCCCC(=O)O)C(=O)O)C(=O)O)C(=O)N[C@@H](CC(N)=O)C(=O)N[C@@H]([C@@H](C)O)C(=O)N[C@@H](C)C(=O)N[C@@H]([C@@H](C)O)C(=O)N1)[C@@H](C)O)C(C)C)C(=O)N[C@@H](CC(C)C)C(=O)N[C@@H](CO)C(=O)N1CCC[C@H]1C(=O)N[C@H](C(=O)N[C@@H](CC(N)=O)C(=O)N[C@H](C(=O)NCC(=O)N[C@@H](CO)C(=O)N[C@@H](CCN)C(=O)N[C@H](C(=O)N[C@@H](Cc1ccc(O)cc1)C(N)=O)[C@@H](C)O)C(C)C)[C@@H](C)O
B4: Peptide 125 (SEQ ID NO: 125) (peptide)
peptide: K([γGlu-γGlu-C20 diacid])CNTATCATQRLANFLVHSS[Aib]NFPAILSPTNVGS[Dab]TY-NH2
modifications: disulfide 2-7; N-terminus assumed
SMILES: CC[C@H](C)[C@H](NC(=O)[C@H](C)NC(=O)[C@@H]1CCCN1C(=O)[C@H](Cc1ccccc1)NC(=O)[C@H](CC(N)=O)NC(=O)C(C)(C)NC(=O)[C@H](CO)NC(=O)[C@H](CO)NC(=O)[C@H](Cc1c[nH]cn1)NC(=O)[C@@H](NC(=O)[C@H](CC(C)C)NC(=O)[C@H](Cc1ccccc1)NC(=O)[C@H](CC(N)=O)NC(=O)[C@H](C)NC(=O)[C@H](CC(C)C)NC(=O)[C@H](CCCNC(=N)N)NC(=O)[C@H](CCC(N)=O)NC(=O)[C@@H](NC(=O)[C@H](C)NC(=O)[C@@H]1CSSC[C@H](NC(=O)[C@@H](N)CCCCNC(=O)CC[C@H](NC(=O)CC[C@H](NC(=O)CCCCCCCCCCCCCCCCCCC(=O)O)C(=O)O)C(=O)O)C(=O)N[C@@H](CC(N)=O)C(=O)N[C@@H]([C@@H](C)O)C(=O)N[C@@H](C)C(=O)N[C@@H]([C@@H](C)O)C(=O)N1)[C@@H](C)O)C(C)C)C(=O)N[C@@H](CC(C)C)C(=O)N[C@@H](CO)C(=O)N1CCC[C@H]1C(=O)N[C@H](C(=O)N[C@@H](CC(N)=O)C(=O)N[C@H](C(=O)NCC(=O)N[C@@H](CO)C(=O)N[C@@H](CCN)C(=O)N[C@H](C(=O)N[C@@H](Cc1ccc(O)cc1)C(N)=O)[C@@H](C)O)C(C)C)[C@@H](C)O
B5: Peptide 14 (SEQ ID NO: 14) (peptide)
peptide: K([γGlu-C18 diacid])KCNTATCATQRLANFLVHSSNN[αMeF]GPILPPTNVGSNTY-NH2
modifications: disulfide 3-8
B6: Peptide 127 (SEQ ID NO: 127) (peptide)
peptide: K([γGlu-γGlu-C18 diacid])CNTATCATQRLANFL[Aib]HSSNNFGPILPPTNVGSNTY-NH2
modifications: disulfide 2-7; N-terminus assumed
SMILES: CC[C@H](C)[C@H](NC(=O)[C@@H]1CCCN1C(=O)CNC(=O)[C@H](Cc1ccccc1)NC(=O)[C@H](CC(N)=O)NC(=O)[C@H](CC(N)=O)NC(=O)[C@H](CO)NC(=O)[C@H](CO)NC(=O)[C@H](Cc1c[nH]cn1)NC(=O)C(C)(C)NC(=O)[C@H](CC(C)C)NC(=O)[C@H](Cc1ccccc1)NC(=O)[C@H](CC(N)=O)NC(=O)[C@H](C)NC(=O)[C@H](CC(C)C)NC(=O)[C@H](CCCNC(=N)N)NC(=O)[C@H](CCC(N)=O)NC(=O)[C@@H](NC(=O)[C@H](C)NC(=O)[C@@H]1CSSC[C@H](NC(=O)[C@@H](N)CCCCNC(=O)CC[C@H](NC(=O)CC[C@H](NC(=O)CCCCCCCCCCCCCCCCC(=O)O)C(=O)O)C(=O)O)C(=O)N[C@@H](CC(N)=O)C(=O)N[C@@H]([C@@H](C)O)C(=O)N[C@@H](C)C(=O)N[C@@H]([C@@H](C)O)C(=O)N1)[C@@H](C)O)C(=O)N[C@@H](CC(C)C)C(=O)N1CCC[C@H]1C(=O)N1CCC[C@H]1C(=O)N[C@H](C(=O)N[C@@H](CC(N)=O)C(=O)N[C@H](C(=O)NCC(=O)N[C@@H](CO)C(=O)N[C@@H](CC(N)=O)C(=O)N[C@H](C(=O)N[C@@H](Cc1ccc(O)cc1)C(N)=O)[C@@H](C)O)C(C)C)[C@@H](C)O

Molecular target: T1, human amylin receptor (calcitonin …)
Assay: cell-based or functional assay

EC50 (cAMP production) | Ratio (EC50 hCTR / EC50 hAMYR3) | Binder
0.445 nM | 19 | B1
0.873 nM | 5 | B2
1.13 nM | 6 | B3
1.2 nM | 8 | B4
0.22 nM | 6 | B5
0.364 nM | 19.6 | B6

Molecular target: T2, human calcitonin receptor
Assay: cell-based or functional assay

EC50 (cAMP production) | Binder
8.45 nM | B1
4.79 nM | B2
6.63 nM | B3
10.2 nM | B4
1.35 nM | B5
7.13 nM | B6
